According to IntAct's records for PubMed 16443932:

Biological target: cdc42_human CDC42 (UniProt P60953)
Chain of UniProt P60953 (P60953 whole entry, looked up): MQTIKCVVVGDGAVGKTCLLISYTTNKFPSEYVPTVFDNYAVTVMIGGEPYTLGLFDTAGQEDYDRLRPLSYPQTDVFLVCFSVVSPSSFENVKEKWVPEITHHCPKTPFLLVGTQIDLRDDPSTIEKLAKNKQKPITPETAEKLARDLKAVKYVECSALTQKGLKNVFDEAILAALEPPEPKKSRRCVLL

## Phospholipid-transporting ATPase ABCA1 (Homo sapiens), O95477 K939M
  effect of a mutation on the interaction: disrupting interaction strength
